Results published in the supplement of paper PMC6755084.

B1: F1*; the commonest letter at each place (parent)
chain: GAGACCGCAACTGAAAAGTTGTTATCACTTGTCGTAAGACACTTTGGATGGGTTGAAGTTCTGCACGTAGAAGCAAAAGGC

Variants of: B1
Experiment: fraction ligated after 30 min (ligated reads / total reads); higher = more ligase activity
Details: with F1*sub RNA substrate (template-directed ligation), 42 °C
Method in brief: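 Oligo-pool templates of ligase ribozyme variants were PCR-amplified, T7-transcribed and gel-purified. Ligated and unligated bands were gel-separated, reverse transcribed with barcoded primers, and MiSeq-sequenced; core bases were filtered at quality ≥20. Fraction ligated per variant was ligated reads over total reads.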
Variant C33T T44C has a fraction ligated of 0.855.
C33T T44A showed a fraction ligated of 0.844.
C33T T44G was tested, and the fraction ligated was 0.815.
With C33A G55A the fraction ligated was 0.84.
For C33A G55T, the fraction ligated was 0.809.
For C33A G55C, the fraction ligated was 0.77.
With T35A A36G the fraction ligated was 0.857.
Work on T35A A36C yielded a fraction ligated of 0.865.
T35A A36T showed a fraction ligated of 0.85.
In the case of G34T G47A, the fraction ligated is reported as 0.764.
In the case of G34T G47C, the fraction ligated is reported as 0.342.
In the case of G34T G47T, the fraction ligated is reported as 0.363.
In the case of T35A A39C, the fraction ligated is reported as 0.828.
Variant T35A A39T has a fraction ligated of 0.838.
In the case of T35A A39G, the fraction ligated is reported as 0.851.
C33A G50A was tested, and the fraction ligated was 0.343.
Work on C33A G50C yielded a fraction ligated of 0.0908.
C33A G50T showed a fraction ligated of 0.627.
Variant C33A G47A has a fraction ligated of 0.745.
In the case of C33A G47T, the fraction ligated is reported as 0.219.
With C33A G47C the fraction ligated was 0.109.
G34A G55A showed a fraction ligated of 0.84.
G34A G55C gave a fraction ligated of 0.801.
Work on G34A G55T yielded a fraction ligated of 0.811.
Work on G34T G38T yielded a fraction ligated of 0.82.
G34T G38C was tested, and the fraction ligated was 0.83.
G34T G38A was tested, and the fraction ligated was 0.836.
In the case of G34A T45C, the fraction ligated is reported as 0.795.
G34A T45G gave a fraction ligated of 0.368.
G34A T45A gave a fraction ligated of 0.797.
G34C A57G was tested, and the fraction ligated was 0.854.
In the case of G34C A57T, the fraction ligated is reported as 0.769.
Work on G34C A57C yielded a fraction ligated of 0.817.
In the case of G34A T35A, the fraction ligated is reported as 0.848.
For G34A T35G, the fraction ligated was 0.855.
In the case of G34A T35C, the fraction ligated is reported as 0.835.
C33G G47T gave a fraction ligated of 0.409.
In the case of C33G G47C, the fraction ligated is reported as 0.108.
C33G G47A showed a fraction ligated of 0.791.
For C33G A57G, the fraction ligated was 0.881.
With C33G A57T the fraction ligated was 0.836.
Variant C33G A57C has a fraction ligated of 0.847.
Work on C33T G47T yielded a fraction ligated of 0.32.
Variant C33T G47C has a fraction ligated of 0.165.
For C33T G47A, the fraction ligated was 0.836.
Work on G34T C42G yielded a fraction ligated of 0.841.
G34T C42T gave a fraction ligated of 0.848.
For G34T C42A, the fraction ligated was 0.849.
For C33T T49C, the fraction ligated was 0.697.
Work on C33T T49A yielded a fraction ligated of 0.787.
Work on C33T T49G yielded a fraction ligated of 0.801.
With C33G C42T the fraction ligated was 0.833.
In the case of C33G C42G, the fraction ligated is reported as 0.853.
C33G C42A was tested, and the fraction ligated was 0.826.
For T35A A41C, the fraction ligated was 0.792.
G34T G46T showed a fraction ligated of 0.763.
Variant G34T G46C has a fraction ligated of 0.778.
G34T G46A gave a fraction ligated of 0.823.
Work on G34C C40A yielded a fraction ligated of 0.805.
G34C C40T showed a fraction ligated of 0.803.
Work on G34C C40G yielded a fraction ligated of 0.818.
With G34T G50C the fraction ligated was 0.396.
G34T G50T gave a fraction ligated of 0.767.
G34T G50A gave a fraction ligated of 0.606.
With C33G G50A the fraction ligated was 0.253.
Variant C33G G50C has a fraction ligated of 0.114.
For C33G G50T, the fraction ligated was 0.545.
With G34A T44G the fraction ligated was 0.844.
Variant G34A T44C has a fraction ligated of 0.825.
With G34A T44A the fraction ligated was 0.842.
G34A C40A gave a fraction ligated of 0.817.
G34A C40T gave a fraction ligated of 0.81.
Variant G34A C40G has a fraction ligated of 0.833.
Work on G34T yielded a fraction ligated of 0.848.
G34A showed a fraction ligated of 0.848.
In the case of G34C, the fraction ligated is reported as 0.832.
C33T A57C showed a fraction ligated of 0.841.
C33T A57T was tested, and the fraction ligated was 0.842.
C33T A57G gave a fraction ligated of 0.861.
For G34C T35A, the fraction ligated was 0.815.
G34C T35G gave a fraction ligated of 0.829.
G34C T35C showed a fraction ligated of 0.835.
Variant C33G A37G has a fraction ligated of 0.847.
C33G A37T was tested, and the fraction ligated was 0.853.
C33G A37C was tested, and the fraction ligated was 0.824.
C33T A56C showed a fraction ligated of 0.795.
With C33T A56T the fraction ligated was 0.847.
C33T A56G showed a fraction ligated of 0.797.
C33G T45G was tested, and the fraction ligated was 0.0204.
Variant C33G T45A has a fraction ligated of 0.689.
In the case of C33G T45C, the fraction ligated is reported as 0.273.
For G34T T45C, the fraction ligated was 0.757.
G34T T45A showed a fraction ligated of 0.794.
G34T T45G was tested, and the fraction ligated was 0.385.
Variant C33G G38A has a fraction ligated of 0.847.
C33G G38T showed a fraction ligated of 0.837.
For C33G G38C, the fraction ligated was 0.829.
C33A T44G showed a fraction ligated of 0.821.
For C33A T44A, the fraction ligated was 0.805.
Work on C33A T44C yielded a fraction ligated of 0.84.
With G34C G55T the fraction ligated was 0.809.
With G34C G55A the fraction ligated was 0.838.
Work on G34C G55C yielded a fraction ligated of 0.768.
With C33G T43C the fraction ligated was 0.812.
With C33G T43G the fraction ligated was 0.807.
C33G T43A showed a fraction ligated of 0.814.
G34A G47T showed a fraction ligated of 0.373.
For G34A G47C, the fraction ligated was 0.239.
G34A G47A was tested, and the fraction ligated was 0.805.
C33A T35A was tested, and the fraction ligated was 0.879.
With C33A T35G the fraction ligated was 0.866.
C33A T35C gave a fraction ligated of 0.85.
G34T A48G was tested, and the fraction ligated was 0.77.
For G34T A48C, the fraction ligated was 0.756.
G34T A48T gave a fraction ligated of 0.801.
Variant C33T G50C has a fraction ligated of 0.324.
C33T G50T showed a fraction ligated of 0.804.
C33T G50A was tested, and the fraction ligated was 0.603.
C33T A37T showed a fraction ligated of 0.854.
For C33T A37C, the fraction ligated was 0.868.
C33T A37G was tested, and the fraction ligated was 0.878.
With G34C T45A the fraction ligated was 0.0783.
Work on G34C T45C yielded a fraction ligated of 0.733.
For G34C T45G, the fraction ligated was 0.0478.
Variant G34A A56T has a fraction ligated of 0.819.
For G34A A56G, the fraction ligated was 0.775.
For G34A A56C, the fraction ligated was 0.804.
For C33G A56T, the fraction ligated was 0.867.
In the case of C33G A56G, the fraction ligated is reported as 0.793.
With C33G A56C the fraction ligated was 0.837.
In the case of C33G G46T, the fraction ligated is reported as 0.811.
C33G G46C was tested, and the fraction ligated was 0.779.
With C33G G46A the fraction ligated was 0.811.
C33T G38C showed a fraction ligated of 0.835.
Variant C33T G38A has a fraction ligated of 0.857.
With C33T G38T the fraction ligated was 0.847.
G34A A36G gave a fraction ligated of 0.846.
With G34A A36C the fraction ligated was 0.83.
With G34A A36T the fraction ligated was 0.843.
Work on G34C A48G yielded a fraction ligated of 0.753.
For G34C A48C, the fraction ligated was 0.756.
With G34C A48T the fraction ligated was 0.781.
G34A A48C showed a fraction ligated of 0.772.
Work on G34A A48T yielded a fraction ligated of 0.798.
G34A A48G showed a fraction ligated of 0.795.
C33A T43A was tested, and the fraction ligated was 0.83.
C33A T43G was tested, and the fraction ligated was 0.799.
C33A T43C was tested, and the fraction ligated was 0.834.
G34C G47A gave a fraction ligated of 0.774.
Work on G34C G47C yielded a fraction ligated of 0.365.
G34C G47T gave a fraction ligated of 0.352.
C33T A39T showed a fraction ligated of 0.831.
In the case of C33T A39C, the fraction ligated is reported as 0.804.
With C33T A39G the fraction ligated was 0.833.
Variant G34A A57G has a fraction ligated of 0.835.
G34A A57T was tested, and the fraction ligated was 0.822.
In the case of G34A A57C, the fraction ligated is reported as 0.791.
For G34T A41T, the fraction ligated was 0.763.
G34T A41G was tested, and the fraction ligated was 0.768.
Work on G34T A41C yielded a fraction ligated of 0.755.
In the case of C33T G34C, the fraction ligated is reported as 0.831.
C33T G34A showed a fraction ligated of 0.855.
For C33T G34T, the fraction ligated was 0.853.
In the case of G34T T43C, the fraction ligated is reported as 0.782.
With G34T T43A the fraction ligated was 0.827.
Variant G34T T43G has a fraction ligated of 0.793.
With T35A the fraction ligated was 0.836.
